“Also recorded” adds a separate entry of the source.
Tests used:
[1] = Reaction of two AGT variants in one sample with CPTG and BG-Bt; type: biochemical; conditions: versus His-tagged AGTM
Experimental: FIG. 2: Western blot of the reaction of wild type hAGT (GST-hAGT fusion protein) and AGTM with the two substrates N^9-cyclopentyl-O^6-bromophenyl-guanine (CPTG) and biotinylated O^6-benzylguanine (BG-Bt, substance 3a of Juillerat et al. 2003) as described in Example 7. BG-Bt is present in all samples at 5 μM. Detection with neutravidin-peroxidase conjugate and luminescent peroxidase substrate detecting any AGT reacted with BG-Bt. Even under simultaneous incubation with identical concentrations of CPTG and BG-Bt only about 5% of GST-hAGT reacts with substrate BG-Bt.
Within the experiment two tags with different size for the two AGT proteins are used: The His-tagged AGTM (˜20 kDa) and GST-hAGT (cloned and prepared as described in Example 1, but starting with the wild type hAGT gene, ˜48 kDa) are diluted to 0.2 μM and 1.2 μM final concentration, respectively, in reaction buffer containing 50 mM HEPES, 1 mM DTT, 200 mg/mL BSA (pH 7.3). The sample is incubated with a mixture of substrates N^9-cyclopentyl-O^6-bromophenyl-guanine (CPTG; 0, 5 and 10 μM final concentrations) and biotinylated O^6-benzylguanine (BG-Bt, 5 μM final concentration) for 30 minutes. The reaction is quenched by addition of SDS-Laemmli buffer and subjected to Western blotting analysis (Example 1). As the two AGT variants have different masses, the two proteins can be separated on an acrylamide gel and analyzed independently. […] At the same concentration (both substrates at 5 μM final concentration), 95% of GST-hAGT reacts with CPTG, versus only 5% of His-tagged AGTM.

[2] = test system: oligonucleotide SEQ ID NO:2 (modified in position 14); experiment: Reactivity against DNA-based substrates (BG-Cy3 assay with BG-modified oligonucleotide); type: biochemical; conditions: oligonucleotide SEQ ID NO:2 with O^6-benzyl at position 14; compared to PGEG-hAGT
Experimental: The ability of wild type AGT or mutant AGT to react with alkylated DNA substrates is measured as the reaction of its inactivation by a synthetic oligonucleotide containing O^6-benzylguanine (SEQ ID NO:2, modified in position 14). Subsequently, the reactions are quenched by incubation with biotinylated O^6-alkylguanine. Samples are subjected to Western blotting and detection with streptavidin derivates to obtain kinetic constants for these substrates. Alternatively, the ability of wild type or mutant AGT to react with alkylated DNA substrates is measured via its labeling efficiency in competition with a fluorescent substrate of AGT. The reaction kinetics of AGT with BG-Cy3 (O^6-benzylguanine coupled to Cy3) is followed by fluorescence intensity measurements at various concentrations of a competing synthetic oligonucleotide containing O^6-benzylguanine (SEQ ID NO:2, modified in position 14).
Reactivity against DNA-based substrates measured with a BG-Cy3 assay: BG-Cy3 is prepared by reacting the previously described O^6-(4-aminomethyl-benzyl)guanine (Keppler et al., NatureBiotechnol. 21:86-89, 2003) with the commercially available N-hydroxysuccinimide ester of Cy3, (Cy3-NHS, Amersham). The coupling reaction is performed at ambient temperature in N,N-dimethylformamide in the presence of 1 eq. of triethylamine. The BG-Cy3 conjugate is purified by reversed-phase HPLC on a C18-column by using linear gradients from 0.1% trifluoroacetic acid to acetonitrile. After solvent evaporation BG-Cy3 is dissolved in dimethyl sulfoxide and stored at −20° C. For measuring the reactivity with DNA-based substrates, a reaction mixture containing different concentrations (0 to 5 µM) of oligonucleotide SEQ ID NO:2 (modified in position 14), GST-AGT fusion protein at 0.2 µM and BG-Cy3 at […] in reaction buffer (50 mM HEPES, pH 7.2, 1 mM DTT, 200 mg/ml BSA) is incubated in microtiterplates. Fluorescence of the Cy3 derivative (excitation 519 nm, emission at 572 nm) is measured on a Spectramax Gemini plate reader (Molecular Devices).

[3] = Activity assay with biotinylated O^6-benzylguanine (BG-Bt), Western blotting; type: biochemical; conditions: statement in words
Experimental: Activity towards O^6-benzylguanine substrates is measured as described by Juillerat et al., Chem Biol 10:313-317, 2003.
Activity assay: Purified mutated GST-AGT is incubated in vitro with a biotinylated O^6-benzylguanine (BG-Bt, substance 3a of Juillerat et al., Chem Biol 10:313-317, 2003). In a total reaction volume of 80 […]I, 0.2 µM GST-AGT are incubated with 1 µM substrate in 50 mM HEPES pH 7.2 and 1 mM DTT at room temperature. At several points of time an aliquot is quenched with 1 mM O^6-benzylguanine (Sigma) in SDS-Laemmli buffer and subjected to Western blotting analysis (neutravidin-peroxidase conjugate (PIERCE), Renaissance reagent plus (NEN)). The intensity of the corresponding bands is quantified by a Kodak Image Station 440.

[4] = Expression yield of soluble GST-AGT fusion protein; parameters: species or system E. coli; conditions: comparator not stated
Experimental: Expression yield is measured in E. coli or in any other of the standard production cells for genetically modified proteins, e.g. yeast, or preferably insect cells, CHO cells or HeLa cells. For quantifying expression yield, AGT fusion proteins may be chosen such that the fusion partner allows easy purification and quantification. For example, expression yield in E. coli is determined by measuring and comparing the yield of soluble and insoluble GST-wild type AGT fusion protein and GST-mutant AGT fusion protein from parallel E. coli expression cultures. Samples of the soluble fractions and insoluble fractions (i.e. the inclusion bodies) after cell lysis are subjected to SDS-PAGE, and the band staining intensities of the corresponding AGT fusion proteins are compared. Soluble protein is quantified after purification of the fusion protein from cell extracts by affinity chromatography (e.g. for GST-AGT fusion proteins by glutathione sepharose) by subjecting the purified fractions to a protein concentration assay (Bradford, Anal Biochem 72:248-54, 1976). The expression yield of similar proteins in the soluble fraction (difference in point mutations) can be used as a measure for protein stability in the unpurified as well as the purified state (Ohage et al., J Mol Biol 291:1119-1128, 1999; Wirtz et al., Protein Sci 8: 2245-50, 1999). Therefore, this is taken as a measure of folding stability and aggregation tendency.
Protein expression from this vector is carried out in E. coli strain BL21. An exponentially growing culture is induced with 0.5 mM IPTG, and the expression is carried out for 3.5 h at 24° C.
Purification: The harvested cells are resuspended in a buffer containing 50 mM phosphate, 0.5 M NaCl, 1 mM DTT, supplemented with 1 mM PMSF and 2 μg/ml aprotinin, and disrupted by lysozyme and sonification. The cell debris are separated by centrifugation at 40000×g. The extract is applied to pre-equilibrated glutathione sepharose (Amersham) which is then washed with 20 bed volumes (50 mM phosphate, 0.5 M NaCl, 1 mM DTT). The mutated GST-AGT fusion protein is eluted with 10 mM reduced glutathione in 50 mM Tris·HCl pH 7.9. The purified protein is dialyzed against 50 mM HEPES pH 7.2; 1 mM DTT; 30% glycerol and then stored at −80° C.
Determination of protein yield: Purity and relative amounts of the GST-AGT fusion proteins are compared by running samples on SDS-PAGE. UV spectra of the pure fractions are recorded using a Perkin Elmer Lambda 10. For protein samples containing no significant amount of DNA, the extinction at 280 nm as a measure of protein content is compared to that of wild type hAGT or PGEG-hAGT that were purified under the same conditions.

[5] = Competition of N^9-substituted and N^9-unsubstituted O^6-benzylguanine substrates; type: biochemical
Experimental: Such N^9-substituted O^6-alkylguanine substrates are the natural substrates of the wild type AGT. The ability of wild type AGT or mutant AGT to react with N^9-modified O^6-alkylguanine substrates is measured as the rate of its reaction with such substrates, e.g. with the low molecular weight N^9-cyclopentyl-O^6-benzylguanine in presence of biotinylated N^9-unsubstituted O^6-alkylguanine substrates in competition experiments. Subsequently, samples are subjected to Western blotting and detection with streptavidin derivates to obtain kinetic constants for these substrates. Alternatively, the reactivity towards such substrates is measured as the inhibition of the reaction of AGT with BG-Cy3. The reaction of AGT with BG-Cy3 is followed by an increase of Cy3 fluorescence intensity upon binding to AGT, after preincubation or in direct competition with the N^9-modified O^6-alkylguanine substrate.
Selected AGT mutants are subcloned into pGEX2T, expressed, purified and characterized as described in Example 1. Discrimination between N^9 substituted and N^9 unsubstituted O^6-benzylguanine substrates is evaluated by competition experiments for purified mutated GST-AGT in vitro with N^9-substituted and N′-unsubstituted O^6-benzylguanine. Aliquots of 0.2 μM GST-AGT are incubated with varying concentrations of N^9 substituted substrate (0, 0.5, up to 100 µM) and 0.5 µM biotinylated O^6-benzylguanine (BG-Bt, substance 3a of Juillerat et al., Chem Biol 10:313-317, 2003) in 50 mM HEPES pH 7.3 and 1 mM DTT at room temperature. After 45 min reactions are quenched by the addition of SDS-Laemmli buffer and heat denaturation. Samples are subjected to SDS-PAGE and Western blotting analysis (neutravidin-peroxidase conjugate (PIERCE), Renaissance reagent plus (NEN)). The intensity of the corresponding bands is quantified by a Kodak Image Station 440.

Molecule | specificity of CPTG towards GST-hAGT [1] | reduction of reactivity with oligonucleotides [2] | activity towards O^6-benzylguanine substrates [3] | expression yield in E. coli [4] | reduced reactivity towards O^6-alkyl-N^9-deoxyribosylguanine or N^9-cyclopentyl-O^6-benzylguanine ([5]; comparator not stated) | reduction of reactivity towards O^6-alkyl-N^9-deoxyribosylguanine or N^9-cyclopentyl-O^6-benzylguanine ([5]; compared to PGEG-hAGT)
Nc1nc(OCc2cc(Br)cs2)c2ncn(C3CCCC3)c2n1 [CPTG, reference compound] | high specificity |  |  |  |  | 
Gly131Lys, Gly132Thr, Met134Leu, Arg135Ser, Asn157Gly, Ser159Glu: hAGT mutant with the listed mutations, selected by phage display (protein, UniProt P16455 1-207, looked up, variant G131K G132T M134L R135S N157G S159E) Methylated-DNA--protein-cystei …: MDKDCEMKRTTLDSPLGKLELSGCEQGLHEIKLLGKGTSAADAVEVPAPAAVLGGPEPLMQCTAWLNAYFHQPEAIEEFPVPALHHPVFQQESFTRQVLWKLLKVVKFGEVISYQQLAALAGNPKAARAVKTALSGNPVPILIPCHRVVCSSGAVGGYEGGLAVKEWLLAHEGHRLGKPGLGGSSGLAGAWLKGAGATSGSPPAGRN |  | at least 1000 fold | at least twofold further increased activity; also recorded: increased reactivity | increased expression yield | substantially reduced reactivity | at least 10 fold

From patent US7888090B2, “Mutants of O6-alkylguanine-DNA alkyltransferase” (Ecole Polytechnique Federale de Lausanne, priority 2004, dated 2011)
